Measured values taken from patent US11982671B2, “Identification of a T cell epitope of Prevotella copri that induces T cell responses in patients with rheumatoid arthritis” (priority 2016, dated 2024).

Test system: serum IgG and IgA antibodies
Assay: ELISA for serum IgG and IgA antibodies to the P. copri protein (Pc-p27)
Type: binding, human
Description: ELISA for serum IgG and IgA antibodies to the P. copri protein (Pc-p27). ELISA plates were coated with 0.25 μg/ml of the P. copri protein Pc-p27 (GenScript USA Inc, Piscataway, N.J.) overnight at 4° C. Subsequent incubations and washes were performed at room temperature. After washing with phosphate buffered saline with 0.05% Tween-20 (PBST), the plates were incubated with blocking buffer (5% nonfat dry milk in PBST) for one hour. Afterwards, 100 μl of each patient's serum sample (diluted 200-fold) was added in duplicate wells for 1.5 hours, followed by horseradish-peroxidase (HRP)-conjugated goat anti-human IgG (sc-2453, Santa Cruz Biotech) or HRP-conjugated goat anti-human IgA (Bio-Rad, Hercules, Calif.) and then TMB substrate (BD, San Diego, Calif.). For inter-plate standardization, 2 control samples were included on each plate.

B1: Pc-p27: full length 27-kD protein of P. copri, recombinant (GenScript) (protein, listed as Prevotella copri)
chain: MKRIILILTVLLAMLGQVAYAQKTCVIASAENHVPIREALIHTNNNHWARTDYRGYWTMRYQFDSATVSKPGFMKATIRYKELPDTLFLLPDAKQLGEVTVWGKNQEGIKNMEEDIQEKINSLPTSSTGIGFDAFGWMDKQGKRDKKHLQQAKKVFEKMEHKDPVVAAYEKATGKKYELTNPYDVSAFKKDPPSEMATEEKKATSDAESKSKKKENPEKYAQE
- patients with positive IgG antibody responses (49 CRA patients): 20%
- patients with IgG antibody responses >3 SD above HC (78 NORA patients, serum diluted 200-fold): 13%
- patients with IgG or IgA antibody responses (127 RA patients): 24%
- patients with IgA antibody responses (both the NORA and CRA groups): About 10%
